Target: T1, D614G S2P probe (SARS-CoV-2, WA-1 with D614G, UniProt A0A6H1PJZ3, D614G | K986P | V987P, biotin on the AVI tag (…))
T1 construct: also called single mutated D614G S2P
Test: BLI
Settings: both partners purified

B1: A19-46.1 (antibody, V domains shown)
VH: QVQLVESGGGVVQPGRSLRLSCAASGFTLSSYGMHWVRQAPGKGLEWVAVISYDGSNKYYVDSVKGRFTISRDNSKNTLYLQMNSLRAEDTAVYYCARGWAYWELLPDYYYGMDVWGQGTTVTVSS
VL: QTVVTQEPSFSVSPGGTVTLTCGLSSGSVSTAYFPSWYQQTPGQAPRTLIYGTNTRSSGVPDRFSGSILGNKAALTITGAQADDESDYYCVLYMGRGIVVFGGGTKLTVL
binding result: binds
